Results: article PMC9399903 (Nature structural & molecular biology, 2022)

Columns and labels:
SEC = target: the molecule itself; assay: SEC
[1] = target: wild-type yeast core particle (CP, 20S proteasome) (S. cerevisiae (endogenous in yeast)) (UniProt P23639)
wild-type yeast core particle (CP, 20S proteasome) (S. cerevisiae (endogenous in yeast)), sequence (P23639 whole entry, looked up): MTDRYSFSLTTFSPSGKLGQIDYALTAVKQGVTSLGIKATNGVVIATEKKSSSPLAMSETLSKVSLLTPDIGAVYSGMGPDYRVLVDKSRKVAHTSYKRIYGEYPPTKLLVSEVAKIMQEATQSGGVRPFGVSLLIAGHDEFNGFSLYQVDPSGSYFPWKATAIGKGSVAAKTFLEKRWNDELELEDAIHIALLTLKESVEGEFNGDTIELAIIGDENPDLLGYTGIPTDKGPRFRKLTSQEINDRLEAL

B1: Fub1 (S. cerevisiae PI31), endogenous untagged (natural protein, UniProt P25659 1-250, looked up)
chain: MIENKVELVAELVLESIGKTEVVSRHTEGTKSCQVSFRIKDSPSEKGSTSFLSELVVIQTLDDNDKYTVVIRHGTSITMACVVGYSDFKLPTELKWPLERESLPVEPDLKPIMTQLKRQTAGSADMPKFDDEYQAQARQNQGTAPLNPYPGLTVTEPSFANPAGGYADGDLYPVGTSHPDWSGGLPNPLGNPSSQGGMIFDPNRRPAPRREDMPPGWMPGSKYDEPFGPGSGGFGGSGSGGFGGSGSGFI
In the case of B1, the “stoichiometry N” value (SEC) is reported as 2 and the inhibition of CP peptidase activity at 2-fold molar excess of Fub1 [1] is reported as 50%.
